# Patent US10660969B2, “Eight-arm polyethylene glycol derivative, production method therefor, and modified bio-related substance thereof” (priority 2015, dated 2020)
# What was measured:
# [1] = Pharmacokinetics in tumor-free SD rats (HPLC, non-compartmental model); assay type: in vivo, Adult SD rats; conditions: single dose of 25 mg/kg, within 7 days
# Protocol: Tumor-free Adult SD rats were administrated a single dose of 25 mg/kg, and four rats were used for each experimental point. The rats were sacrificed at different time points within 7 days, and the concentrations of pegylated irinotecan and its metabolite SN38 were measured and analyzed by HPLC. The analysis of pharmacokinetics was carried out by using a non-compartmental model.
# Mouse hepatoma H22 cells = experiment: Anti-tumor effect in transplanted tumor model; assay type: in vivo, mice; conditions: H22 subcutaneous tumor; tumors weighed two weeks after transplantation
# Protocol: An animal model of transplanted tumor was used. Mouse hepatoma H22 cells were transplanted subcutaneously into the right axillary region of mice to form solid tumors. After transplantation for 2 days and 7 days, drugs were administered intravenously via the tail vein as a single dose. Two weeks after transplantation, the mice were sacrificed by cervical dislocation, and the tumors were isolated and weighed.
# [2] = nude mouse
# Description: The nude mouse model was used to evaluate the maximum tolerated dose of each group. When the body weight of a nude mouse decreased by 20%, the death/survival was monitored and counted.
structure (smiles),measurement,setting,value
"CCOC(=O)CC(CN)(CC(=O)OCC)CC(=O)OCC [Example T8, 8arm-PEG-Gly-IRES]","apparent elimination half-life of the metabolite SN38, ranking between groups",[1],the longest apparent elimination half-life
same,"tumor-inhibition ratio, ranking between groups",Mouse hepatoma H22 cells,the highest tumor-inhibition ratio
same,"maximum tolerated dose, ranking between groups",[2],the lowest
